Experimental data as given in PMC8959180.

Assays:
[1] = target: ReoM-His (L. monocytogenes) (UniProt P60357); assay: pull-down + cross-linking; L. monocytogenes ΔclpC strains making ReoM-His were cross-linked in vivo with formaldehyde; ReoM-His purified on MagneHis magnetic beads, decrosslinked by heat; MurA in the eluates detected by Western blot and quantified by densitometry
[2] = target: MurA-Strep (L. monocytogenes) (UniProt Q8Y4C4); assay: SPR
[3] = target: MurA N197D-Strep (L. monocytogenes) (UniProt Q8Y4C4); assay: SPR
[4] = target: MurA S262L-Strep (L. monocytogenes) (UniProt Q8Y4C4); assay: SPR

UniProt P60357, sequence (P60357 whole entry): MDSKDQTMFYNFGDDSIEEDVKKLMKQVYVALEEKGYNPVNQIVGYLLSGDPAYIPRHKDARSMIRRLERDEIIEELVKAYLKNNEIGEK

Substance	percent of wt MurA level copurified [1] [%]	Kd [2] [nM]	koff [2] [s⁻¹]	kon [2] [M⁻¹ s⁻¹]	Kd [3] [nM]	Kd [4] [nM]
MurA N197D (chromosomal allele, strain LMPR14) (from UniProt Q8Y4C4 1-430) (enzyme)	13	–	–	–	–	–
MurA S262L (chromosomal allele, strain LMPR13) (from UniProt Q8Y4C4 1-430) (enzyme)	19	–	–	–	–	–
recombinant ReoM (from UniProt P60357 1-90) (natural protein)	–	900	0.0004	500	700	800
